Source: publication doi:10.1101/2025.10.12.681846v1 (bioRxiv, 2025)

System: type 1 diabetic minipigs
Assay: In vivo blood glucose-responsive insulin release in minipigs
Conditions: for BG rise within 30 minutes: one day after insulin-129, i.v. glucose infusion

In the case of “insulin-129: recombinant human insulin with 4-carboxy-3-fluorophenylboronic acid (FPBA) covalently conjugated at A1 and B29 sites”, the “baseline serum insulin-129 level” value (Pig I) is reported as 369.1 μU/mL, the “peak serum insulin-129 level” value (Pig I, glucose infusion) is reported as 907.3 μU/mL and the “baseline serum insulin-129 level” value (Pig II) is reported as 375.5 μU/mL. The “peak serum insulin-129 level” value (Pig II, glucose infusion) was 1108.0 μU/mL, the “baseline serum insulin-129 level” value (Pig III) was 430.6 μU/mL and the “peak serum insulin-129 level” value (Pig III, glucose infusion) was 1520.5 μU/mL. For the same substance, the “BG rise within 30 minutes” value (Pig Ⅰ) was 399.6 mg/dL, the “BG rise within 30 minutes” value (Pig Ⅱ) was 316.8 mg/dL and the “BG rise within 30 minutes” value (Pig Ⅲ) was 599.4 mg/dL. The “BG by 45 minutes” value (Pigs Ⅰ, Ⅱ and Ⅲ) was “below 200 mg/dL” and the “rise of serum insulin-129 level from baseline” value (glucose infusion, Pigs I, II and III) was “approximately threefold”.
